Results from publication PMC6007307.
Where “and” joins values, the source holds several entries; their conditions need not be identical. Equal entries are not always repeated.

Legend:
[1] = tested on: IFIT1;IFIT3 (human;human); assay: primer extension inhibition (toeprinting); details: 5' cap0 (m7GpppN, no 2'-O-methylation; ScriptCap); Toeprinting at equilibrium, [IFIT1] >= 10x [mRNA]; binding buffer, salt, pH and temperature not in the material (complexes assembled in 20 mM Tris pH 7.5 …)
IFIT1 (human) = assay: primer extension inhibition (toeprinting); details: 5' cap0 (m7GpppN, no 2'-O-methylation; ScriptCap); Toeprinting at equilibrium, [IFIT1] >= 10x [mRNA]; binding buffer, salt, pH and temperature not in the material (complexes assembled in 20 mM Tris pH 7.5 …)
[2] = tested on: IFIT1;IFIT2;IFIT3 (human;human;human); assay: primer extension inhibition (toeprinting); details: 5' cap0 (m7GpppN, no 2'-O-methylation; ScriptCap); Toeprinting at equilibrium, [IFIT1] >= 10x [mRNA]; binding buffer, salt, pH and temperature not in the material (complexes assembled in 20 mM Tris pH 7.5 …)
[3] = molecular target: IFIT2 (recombinant) (human) (UniProt P09913); assay: SEC-MALS; each protein alone at varying concentrations; Superdex 200 Increase 10/300, room temperature, 20 mM Tris pH 7.5, 150 mM KCl, 1 mM DTT
[4] = molecular target: IFIT2 (recombinant) (human) (UniProt P09913); assay: SEC-MALS; equal amounts of IFIT2 and IFIT3 mixed and incubated at 4°C for 1 h, SEC buffer

Sequence of IFIT2 (recombinant) (P09913 whole entry): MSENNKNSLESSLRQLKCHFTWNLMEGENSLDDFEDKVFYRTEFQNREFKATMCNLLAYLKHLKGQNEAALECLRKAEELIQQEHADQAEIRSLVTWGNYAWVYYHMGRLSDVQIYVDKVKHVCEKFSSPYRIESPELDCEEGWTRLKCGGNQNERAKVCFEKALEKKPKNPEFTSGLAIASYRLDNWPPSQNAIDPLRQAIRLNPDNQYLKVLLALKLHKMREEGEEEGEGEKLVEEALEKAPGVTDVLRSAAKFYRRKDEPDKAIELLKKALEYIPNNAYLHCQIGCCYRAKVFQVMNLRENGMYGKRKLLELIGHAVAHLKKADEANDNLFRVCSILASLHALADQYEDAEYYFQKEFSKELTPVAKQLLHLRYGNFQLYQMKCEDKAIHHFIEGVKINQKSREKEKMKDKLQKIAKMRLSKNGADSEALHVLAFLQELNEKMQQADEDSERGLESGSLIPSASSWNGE

stoichiometry N [3] | stoichiometry N [4] | Substance | K half [1] | K half (IFIT1 (human)) | K half [2]
 |  | cap0-β-globin Fluc mRNA | 19 nM | 40 nM | 19 nM
2 and 4 | 2 | IFIT2 (recombinant) (from UniProt P09913 1-472) (natural protein) |  |  | 
